From patent publication US20240190992A1 (UNIVERSITY PUBLIC CORPORATION OSAKA, published 2024)

Legend:
mouse EpCAM = molecular target: T1, mouse EpCAM (mouse, UniProt Q99JW5 24-315); assay: living cell immunostaining of KMC07 co-cultured with mouse PA6 cells
T1 construct: whole, on cells; also called EpCAM on the mouse fibroblast cell line PA6
T1 sequence (looked up): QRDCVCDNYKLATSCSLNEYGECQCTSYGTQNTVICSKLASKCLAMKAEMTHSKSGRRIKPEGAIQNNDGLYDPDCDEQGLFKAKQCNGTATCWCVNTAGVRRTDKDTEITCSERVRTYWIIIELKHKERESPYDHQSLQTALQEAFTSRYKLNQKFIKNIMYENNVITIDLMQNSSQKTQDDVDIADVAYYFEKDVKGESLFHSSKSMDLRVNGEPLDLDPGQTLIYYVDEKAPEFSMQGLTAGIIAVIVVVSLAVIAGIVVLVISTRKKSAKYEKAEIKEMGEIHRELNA
From the text: Since it was considered that EpCAM was so specially modified with KMC07 that its expression pattern was changed, expression of EpCAM was confirmed using alive or fixed Triton X-100-treated KMC07 by immunostaining. At this time, the anti-KMC07 antibody 1F9D4 and a commercially available EpCAM antibody were used as primary antibodies. When KMC07 was immunostained as living cells, signals were obtained on the cell membrane of KMC07 and the cell membrane of PA6 with the anti-EpCAM antibody (indicated by the arrow in FIG. 12). The staining pattern of KMC07 was similar to that with 1F9D4. Since the anti-EpCAM antibody is known to cross human, mouse and rat EpCAMs, it is considered that the anti-EpCAM antibody also reacted to the mouse fibroblast cell line PA6.

[1] = molecular target: T2, EpCAM (epithelial cell adhesion molecule) (human, UniProt P16422 24-314); assay: antibody affinity column on KMC07 whole cell extract, silver staining, mass analysis of the eluted band
T2 construct: whole, on cells; also called human EpCAM
T2 sequence (looked up): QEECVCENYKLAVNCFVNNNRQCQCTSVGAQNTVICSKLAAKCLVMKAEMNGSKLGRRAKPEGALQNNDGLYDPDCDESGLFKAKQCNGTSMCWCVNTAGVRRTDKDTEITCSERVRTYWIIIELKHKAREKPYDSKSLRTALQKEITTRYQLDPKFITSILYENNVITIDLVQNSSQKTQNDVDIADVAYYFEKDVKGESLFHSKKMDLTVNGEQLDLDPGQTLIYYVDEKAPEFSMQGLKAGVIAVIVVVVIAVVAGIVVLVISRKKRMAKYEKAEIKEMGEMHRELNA
From the text: To an affinity column, 5 clones of the anti-KMC07 antibody were bound and the KMC07 whole cell extract was flown to react the antibody with the antigen. Thereafter, the antibody was eluted and evaluated by silver staining. […] Among them, the broad band of 75 to 100 kDa (mark 4 in the figure) detected with 1B4G4 was similar to that in FIG. 10, and thus considered to be promising as a candidate antigen.

- binding result (mouse EpCAM): no binding
- binding result [1]: binds
B1: 1F9D4 (antibody III) (antibody, IgG2b, V domains shown)
VH: EVQLVESGGGLVQPGRSLKLSCAASGFTFSDYNMAWVRQAPKKGLEWVATINYDGISTYYRDSVKGRFTISRDNAKSTLYLQMDSLRSEDTATYYCARHSYVYYALGVPFAYWGQGTLVTVSS
VL: DIQMTQSPSLLSASVGDRVTINCKASQNINKYLNWYQQKLGEAPKLLIYNTNSLQTGIPSRFSGSGSGTDYTLTISSLQPEDFGTYFCFQHNSWPLTFGSGTKLEIK
notes: also called IF9D4; anti-KMC07 antibody 1F9D4
